Laboratory results from patent US20210071139A1.

How the values were obtained:
Assay in all cases: TOX IP-MS, EL4 nuclear extract, MiST
[1] = biological target: Utp14a (UniProt Q640M1)
[2] = biological target: Ikbkap (UniProt Q7TT37)
[3] = biological target: Rpl36; Gm8973
[4] = biological target: Hcfc1 (UniProt Q61191)
[5] = biological target: Cdc73 (UniProt Q8JZM7)
[6] = biological target: Ing4 (UniProt Q8C0D7)
[7] = biological target: Dmap1 (UniProt Q9JI44)
[8] = biological target: Nusap1 (UniProt Q9ERH4)
[9] = biological target: Cdadc1 (UniProt Q8BMD5)
[10] = biological target: Dync1li1 (UniProt Q8R1Q8)
[11] = biological target: Jade2 (UniProt Q6ZQF7)
[12] = biological target: Cacybp (UniProt Q9CXW3)
[13] = biological target: Prrc2c (UniProt Q3TLH4)
[14] = biological target: Ppa1 (UniProt Q9D819)
[15] = biological target: Acsl4 (UniProt Q9QUJ7)
[16] = biological target: Mphosph10 (UniProt Q810V0)
[17] = biological target: Cad (UniProt B2RQC6)
[18] = biological target: Rpl37a (UniProt P61514)
[19] = biological target: Pusl1 (UniProt A2ADA5)
[20] = biological target: Myef2 (UniProt Q8C854)
[21] = biological target: Fubp1 (UniProt Q91WJ8)
[22] = biological target: Mrpl46 (UniProt Q9EQI8)
[23] = biological target: Prrc2a (UniProt Q7TSC1)
[24] = biological target: env
[25] = biological target: Orc5 (UniProt Q9WUV0)
[26] = biological target: Eif5 (UniProt P59325)
[27] = biological target: Rbm42 (UniProt Q91V81)
[28] = biological target: Acot8 (UniProt P58137)

Tox (from UniProt Q66JW3 1-526) gave an Abundance [1] of 3.2e-06, a MiST Score [1] of 0.93 and a Reproducibility [1] of 0.792. It also gave a Specificity [1] of 1, an Abundance [2] of 1.13e-06 and a MiST Score [2] of 0.913. The Reproducibility [2] was 0.737, the Specificity [2] was 1 and the Abundance [3] was 0.00269. It also gave a MiST Score [3] of 0.928, a Reproducibility [3] of 0.855 and a Specificity [3] of 0.969. For the same substance, the Abundance [4] was 4.9e-07, the MiST Score [4] was 0.964 and the Reproducibility [4] was 0.901. For the same substance, the Specificity [4] was 1, the Abundance [5] was 4.06e-05 and the MiST Score [5] was 0.896. For the same substance, the Reproducibility [5] was 0.886, the Specificity [5] was 0.908 and the Abundance [6] was 0.00024. For the same substance, the MiST Score [6] was 0.987, the Reproducibility [6] was 0.977 and the Specificity [6] was 1. The Abundance [7] was 6.59e-06, the MiST Score [7] was 0.904 and the Reproducibility [7] was 0.709. It also gave a Specificity [7] of 1, an Abundance [8] of 2.24e-05 and a MiST Score [8] of 0.899. It also gave a Reproducibility [8] of 0.966, a Specificity [8] of 0.877 and an Abundance [9] of 0.00034. For the same substance, the MiST Score [9] was 0.95, the Reproducibility [9] was 0.882 and the Specificity [9] was 0.988. For the same substance, the Abundance [10] was 5.91e-06, the MiST Score [10] was 0.976 and the Reproducibility [10] was 0.941. It also gave a Specificity [10] of 1, an Abundance [11] of 4.26e-06 and a MiST Score [11] of 0.937. It also gave a Reproducibility [11] of 0.815, a Specificity [11] of 1 and an Abundance [12] of 3.38e-05. For the same substance, the MiST Score [12] was 0.944, the Reproducibility [12] was 0.837 and the Specificity [12] was 1. The Abundance [13] was 7.52e-07, the MiST Score [13] was 0.905 and the Reproducibility [13] was 0.71. For the same substance, the Specificity [13] was 1, the Abundance [14] was 8.43e-06 and the MiST Score [14] was 0.994. It also gave a Reproducibility [14] of 0.999, a Specificity [14] of 1 and an Abundance [15] of 2.9e-06. It also gave a MiST Score [15] of 0.968, a Reproducibility [15] of 0.914 and a Specificity [15] of 1. For the same substance, the Abundance [16] was 1.33e-05, the MiST Score [16] was 0.97 and the Reproducibility [16] was 0.924. It also gave a Specificity [16] of 1, an Abundance [17] of 2.65e-07 and a MiST Score [17] of 0.906. It also gave a Reproducibility [17] of 0.714, a Specificity [17] of 1 and an Abundance [18] of 0.00127. For the same substance, the MiST Score [18] was 0.911, the Reproducibility [18] was 0.731 and the Specificity [18] was 1. The Abundance [19] was 1.19e-05, the MiST Score [19] was 0.925 and the Reproducibility [19] was 0.776. It also gave a Specificity [19] of 1, an Abundance [20] of 3.8e-06 and a MiST Score [20] of 0.993. It also gave a Reproducibility [20] of 0.998, a Specificity [20] of 1 and an Abundance [21] of 4.54e-06. It also gave a MiST Score [21] of 0.984, a Reproducibility [21] of 0.966 and a Specificity [21] of 1. For the same substance, the Abundance [22] was 3.3e-05, the MiST Score [22] was 0.982 and the Reproducibility [22] was 0.962. For the same substance, the Specificity [22] was 1, the Abundance [23] was 7.11e-07 and the MiST Score [23] was 0.916. For the same substance, the Reproducibility [23] was 0.862, the Specificity [23] was 0.948 and the Abundance [24] was 0.000113. For the same substance, the MiST Score [24] was 0.977, the Reproducibility [24] was 0.946 and the Specificity [24] was 1. It also gave an Abundance [25] of 2.13e-06, a MiST Score [25] of 0.985 and a Reproducibility [25] of 0.971. For the same substance, the Specificity [25] was 1, the Abundance [26] was 1.08e-05 and the MiST Score [26] was 0.985. It also gave a Reproducibility [26] of 0.971, a Specificity [26] of 1 and an Abundance [27] of 9.15e-06. It also gave a MiST Score [27] of 0.969, a Reproducibility [27] of 0.919 and a Specificity [27] of 1. For the same substance, the Abundance [28] was 2.29e-05, the MiST Score [28] was 0.989 and the Reproducibility [28] was 0.983. It also gave a Specificity [28] of 1.
